Results reported in patent publication US20210338833A1 (MIT, published 2021).
Ends that are not written are not given here. * marks the point of attachment. Biotin = O=C1N[C@H]2[C@H](CS[C@H]2CCCCC(=O)*)N1

How the values were obtained:
FMC63 scFv [1] = target: T1, FMC63 scFv (biotinylated); assay: yeast-display FACS titration with biotinylated FMC63 scFv
T1 construct: Whole scFv entry (VL-(G4S)3-VH); also called FMC63-scFv monomer; biotinylated FMC63 scFv

FMC63 IgG [2] = target: T2, FMC63 IgG; assay: yeast-display FACS (MFI) titration with biotinylated FMC63 IgG, 0.01-1000 nM
T2 construct: Murine monoclonal antibody to human CD19; also called FMC63 IgG antibody; biotinylated FMC63 IgG

FMC63 IgG [3] = target: T2, FMC63 IgG; assay: flow cytometry of yeast-displayed mutant with 5 µM FMC63 IgG
Experimental: Specifically, a representative mimotope, […] […] To generate mutations, two complementary oligos with the codon replaced at the desired site were denatured at 95° C. and annealed by slow cooling to 25° C. (decreasing by 0.5° C./second). The annealed oligos were treated with T4 PNK (T4 Polynucleotide Kinase) to add a terminal phosphate, and then ligated into digested pCT-CON2 vector. Positive clones having the correct oligo inserted were tested and transformed into competent EBY100 yeast cells.

FMC63 IgG [4] = target: T2, FMC63 IgG; assay: yeast display FACS selection with biotinylated FMC63 IgG, second sort
From the text: (§1) As in Example 1, a yeast library was generated using nested PCR and the primers in Table 3.

FMC63 IgG [5] = target: T2, FMC63 IgG; assay: yeast display FACS selection with biotinylated FMC63 IgG, first sort
From the text: as §1

FMC63 scFv [6] = target: T1, FMC63 scFv; assay: flow cytometry (MFI) of yeast clone with biotinylated FMC63 scFv and streptavidin-PE
[7] = target: T3, anti-mCD19 (clone 1D3) IgG; assay: yeast display selection with 1D3 IgG
T3 construct: Anti-mouse CD19 IgG; biotinylated for sorting; also called 1D3 antibody; anti-mCD19 IgG
Experimental: Specifically, a library was generated using nested PCR and the primers in Table 1. […] For each round of enrichment, the top 0.5-1% of yeast were sorted. Following enrichment, isolated clones were subjected to Sanger sequencing. […] To further characterize the mimotope affinity, absolute binding affinity was measured by ELISA. Specifically, three mimotopes were selected for screening (Table 8). Of the selected sequences, two fusion mimotopes were chemically synthesized. Specifically, two mimotopes were fused to form a 20 amino acid peptide (Table 9).

FMC63 IgG [8] = target: T2, FMC63 IgG; assay: ELISA, N-terminally biotinylated peptide on streptavidin plate, FMC63 IgG

T2 sequence (VH, as listed by the source, chain 1 of 2): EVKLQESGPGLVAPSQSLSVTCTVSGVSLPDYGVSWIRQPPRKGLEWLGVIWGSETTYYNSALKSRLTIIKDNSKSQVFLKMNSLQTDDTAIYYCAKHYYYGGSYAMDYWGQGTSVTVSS
T2 sequence (VL, as listed by the source, chain 2 of 2): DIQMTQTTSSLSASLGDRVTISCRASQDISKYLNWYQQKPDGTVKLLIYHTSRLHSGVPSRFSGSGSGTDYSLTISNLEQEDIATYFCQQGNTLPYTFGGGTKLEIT
T1 sequence (scFv, as listed by the source): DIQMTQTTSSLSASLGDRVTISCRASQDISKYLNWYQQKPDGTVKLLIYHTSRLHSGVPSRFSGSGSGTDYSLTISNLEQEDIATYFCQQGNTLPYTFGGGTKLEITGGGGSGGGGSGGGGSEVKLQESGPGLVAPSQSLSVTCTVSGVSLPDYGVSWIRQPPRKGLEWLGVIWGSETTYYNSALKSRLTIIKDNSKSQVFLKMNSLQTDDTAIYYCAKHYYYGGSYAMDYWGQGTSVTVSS
T3 sequence (VH, as listed by the source, chain 1 of 2): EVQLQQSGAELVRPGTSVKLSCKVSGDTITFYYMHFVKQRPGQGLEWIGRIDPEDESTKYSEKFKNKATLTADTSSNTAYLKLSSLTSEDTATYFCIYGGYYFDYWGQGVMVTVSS
T3 sequence (VL, as listed by the source, chain 2 of 2): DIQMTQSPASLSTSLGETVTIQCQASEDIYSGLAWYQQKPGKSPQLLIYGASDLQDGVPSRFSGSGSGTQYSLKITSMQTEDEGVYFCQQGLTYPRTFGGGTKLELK

## RLCPWSCREL (Parent of the alanine scan) [FMC63 Mimotope (G9) RLCPWSCREL]
FMC63 scFv [1]
  Kd: 50.6 nM
FMC63 IgG [2]
  Kd: 25.7 nM

## RLCPWDCREL [FMC63 Mimotope (F8) RLCPWDCREL]
FMC63 scFv [1]
  Kd: 41.5 nM
FMC63 IgG [2]
  Kd: 10.6 nM

## RLCPWNCREL [FMC63 Mimotope (G11) RLCPWNCREL]
FMC63 scFv [1]
  Kd: 38.4 nM
FMC63 IgG [2]
  Kd: 18.2 nM

## RICPWACVEL [FMC63 Mimotope (H8) RICPWACVEL]
FMC63 scFv [1]
  Kd: 38.9 nM
FMC63 IgG [2]
  Kd: 9.5 nM

## RICPWSCREL [FMC63 Mimotope (H11) RICPWSCREL]
FMC63 scFv [1]
  Kd: 38.6 nM
FMC63 IgG [2]
  Kd: 10.3 nM

## RACPWSCREL (also called G9 X1 (Leu 2) to Ala) [FMC63 Mimotope Mutant RACPWSCREL]
FMC63 IgG [3]
  binding result: binds

## RLCPWACREL (also called G9 X2 (Ser 6) to Ala) [FMC63 Mimotope Mutant RLCPWACREL]
FMC63 IgG [3]
  binding result: binds

## RLCPWSCAEL (also called G9 X3 (Arg 8) to Ala) [FMC63 Mimotope Mutant RLCPWSCAEL]
FMC63 IgG [3]
  binding result: binds

## RLCPWSCRAL (also called G9 X4 (Glu 9) to Ala) [FMC63 Mimotope Mutant RLCPWSCRAL]
FMC63 IgG [3]
  binding result: binds

## RLCPWSCREA (also called G9 X5 (Leu 10) to Ala) [FMC63 Mimotope Mutant RLCPWSCREA]
FMC63 IgG [3]
  binding result: binds

## RICPWSCIEL [FMC63 Mimotope RICPWSCIEL]
FMC63 IgG [4]
  binding result: binds

## RICPWSCMEL [FMC63 Mimotope RICPWSCMEL]
FMC63 IgG [4]
  binding result: binds

## RICPWSCRPL [FMC63 Mimotope RICPWSCRPL]
FMC63 IgG [4]
  binding result: binds

## RICPWSCVEL [FMC63 Mimotope RICPWSCVEL]
FMC63 IgG [4]
  binding result: binds

## RLCPWACRQL [FMC63 Mimotope RLCPWACRQL]
FMC63 IgG [5]
  binding result: binds

## RLCPWDCKEL [FMC63 Mimotope RLCPWDCKEL]
FMC63 IgG [4]
  binding result: binds

## RLCPWKCREL [FMC63 Mimotope RLCPWKCREL]
FMC63 IgG [4]
  binding result: binds

## RLCPWNCQEL [FMC63 Mimotope RLCPWNCQEL]
FMC63 IgG [4]
  binding result: binds

## RLCPWNCRQL [FMC63 Mimotope RLCPWNCRQL]
FMC63 IgG [4]
  binding result: binds

## RLCPWNCSEL [FMC63 Mimotope RLCPWNCSEL]
FMC63 IgG [4]
  binding result: binds

## RMCPWNCREL [FMC63 Mimotope RMCPWNCREL]
FMC63 IgG [4]
  binding result: binds

## RICPWNCKELPSPPRIFGNR [FMC63 mimotope K-C2 RICPWNCKELPSPPRIFGNR]
FMC63 scFv [6]
  Kd: 14.8 nM

## AGTRICPWNCKELYWLPDE [FMC63 mimotope K-D11 AGTRICPWNCKELYWLPDE]
FMC63 scFv [6]
  Kd: 15.9 nM

## QFQRICPWNCKELYWLPDQ [FMC63 mimotope K-F5 QFQRICPWNCKELYWLPDQ]
FMC63 scFv [6]
  Kd: 13.2 nM

## RLCPWHCAII [FMC63 Mimotope RLCPWHCAII]
FMC63 IgG [5]
  binding result: binds

## RLCPWSCMPR [FMC63 Mimotope RLCPWSCMPR]
FMC63 IgG [5]
  binding result: binds

## RLCPWDCLIL [FMC63 Mimotope RLCPWDCLIL]
FMC63 IgG [5]
  binding result: binds

## RICPWNCSKL [FMC63 Mimotope RICPWNCSKL]
FMC63 IgG [5]
  binding result: binds

## RVCPWSCVEQ [FMC63 Mimotope RVCPWSCVEQ]
FMC63 IgG [5]
  binding result: binds

## RLCPWSCVEQ [FMC63 Mimotope RLCPWSCVEQ]
FMC63 IgG [4]
  binding result: binds

## RLCPWNCIHW [FMC63 Mimotope RLCPWNCIHW]
FMC63 IgG [5]
  binding result: binds

## RLCPWSCIKL [FMC63 Mimotope RLCPWSCIKL]
FMC63 IgG [4]
  binding result: binds

## RLCPWSCIPF [FMC63 Mimotope RLCPWSCIPF]
FMC63 IgG [4]
  binding result: binds

## RICPWSCVKQ [FMC63 Mimotope RICPWSCVKQ]
FMC63 IgG [4]
  binding result: binds

## RLCPWSCLEI [FMC63 Mimotope RLCPWSCLEI]
FMC63 IgG [4]
  binding result: binds

## RICPWDCKPI [FMC63 Mimotope RICPWDCKPI]
FMC63 IgG [4]
  binding result: binds

## RICPWNCKEL (also called F12 mimotope) [FMC63 Mimotope (F12) RICPWNCKEL]
FMC63 scFv [1]
  Kd: 42 nM
FMC63 scFv [6]
  Kd: 45.5 nM

## RICPWGCKEL [FMC63 Mimotope RICPWGCKEL]
FMC63 IgG [4]
  binding result: binds

## RMCPWSCRPH [FMC63 Mimotope (A8) RMCPWSCRPH]
FMC63 IgG [2]
  Kd: 397 nM

## RICPWSCMVV [FMC63 Mimotope (B7) RICPWSCMVV]
FMC63 IgG [2]
  Kd: 376 nM

## RRCPWSCKKQ [FMC63 Mimotope (A12) RRCPWSCKKQ]
FMC63 scFv [1]
  Kd: 240 nM
FMC63 IgG [2]
  Kd: 540 nM

## RMCPWSCYEL [FMC63 Mimotope (C5) RMCPWSCYEL]
FMC63 scFv [1]
  Kd: 238 nM
FMC63 IgG [2]
  Kd: 322 nM

## RLCPWACQEQ [FMC63 Mimotope (C7) RLCPWACQEQ]
FMC63 scFv [1]
  Kd: 219 nM
FMC63 IgG [2]
  Kd: 252 nM

B1: FMC63 Mimotope (H1) RVCPWSCMPI (peptide)
peptide: RVCPWSCMPI
notes: Not the 1D3 mimotope that is also called H1
FMC63 scFv [1]
  Kd: 178 nM
FMC63 IgG [2]
  Kd: 199 nM

## RLCPWSCVPI [FMC63 Mimotope (E6) RLCPWSCVPI]
FMC63 scFv [1]
  Kd: 126 nM
FMC63 IgG [2]
  Kd: 102 nM

## RICPWACLSL [FMC63 Mimotope RICPWACLSL]
FMC63 IgG [5]
  binding result: binds

## SKLKGKSGPE [1D3 Mimotope (H1) SKLKGKSGPE]
[7]
  binding result: binds

B2: biotinylated F12 derivative SASRICPWNCKEL (peptide)
peptide: Biotin-SASRICPWNCKEL
modifications: not fully specified (bridges); cysteine pairing not given here
notes: Free peptide loaded on a streptavidin coated plate for ELISA
FMC63 IgG [8]
  Kd: 0.147 nM

B3: biotinylated F12 derivative GGGSASRICPWNCKEL (peptide)
peptide: Biotin-GGGSASRICPWNCKEL
modifications: not fully specified (bridges); cysteine pairing not given here
notes: as for B2
FMC63 IgG [8]
  Kd: 0.141 nM

## RLCPWECRVL [FMC63 Mimotope RLCPWECRVL]
FMC63 IgG [5]
  binding result: binds

B4: biotinylated F12 derivative GGSGGGGSASRICPWNCKEL (peptide)
peptide: Biotin-GGSGGGGSASRICPWNCKEL
modifications: not fully specified (bridges); cysteine pairing not given here
notes: as for B2
FMC63 IgG [8]
  Kd: 0.139 nM

B5: biotinylated F12 derivative GSGGGGSGGGGSASRICPWNCKEL (peptide)
peptide: Biotin-GSGGGGSGGGGSASRICPWNCKEL
modifications: not fully specified (bridges); cysteine pairing not given here
notes: as for B2
FMC63 IgG [8]
  Kd: 0.134 nM

B6: biotinylated F12 derivative GGGGSGGGGSGGGGSASRICPWNCKEL (peptide)
peptide: Biotin-GGGGSGGGGSGGGGSASRICPWNCKEL
modifications: not fully specified (bridges); cysteine pairing not given here
notes: as for B2
FMC63 IgG [8]
  Kd: 0.153 nM

## RICPWNCKELPTPYMMFDM [FMC63 mimotope K-A3 RICPWNCKELPTPYMMFDM]
FMC63 scFv [6]
  Kd: 22.1 nM

## PLSRICPWNCKELYWLPQR [FMC63 mimotope K-A5 PLSRICPWNCKELYWLPQR]
FMC63 scFv [6]
  Kd: 12.8 nM

## AKRRERDYVGRICPWNCKELHPDTRHRIPV [FMC63 mimotope K-A10 AKRRERDYVGRICPWNCKELHPDTRHRIPV]
FMC63 scFv [6]
  Kd: 18.7 nM

## RICPWNCKELYWLPDE [FMC63 mimotope K-A11 RICPWNCKELYWLPDE]
FMC63 scFv [6]
  Kd: 16.8 nM

## PPPRICPWNCKELPLDWPW [FMC63 mimotope K-B5 PPPRICPWNCKELPLDWPW]
FMC63 scFv [6]
  Kd: 23.8 nM
